In the supplement of paper PMC10567573:

B1: SLC2A12 (parent)
chain: LTLVFFVQITGQPNILFYASTVLK
B2: CAMK2B (parent)
chain: YQQIKAGAYDFPSPEWDTVTPEAK

Variants of: B1
Test: protein stability index of a GFP-peptide fusion (GPS, HEK-293T) (PSI 1-6); higher = more stable
Settings: c terminus: a fixed tail appended
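Note: lentivirally expressed fusions sorted by FACS into six bins by GFP to DsRed ratio, PSI derived from sequencing read proportions per bin multiplied by bin number.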

| Variant | protein stability index |
| --- | --- |
| P13E | 3.73 |
| P13A | 3.85 |
| P13H | 3.43 |
| P13K | 2.67 |
| P13Y | 2.2 |
| P13Q | 2.05 |
| P13I | 2.72 |
| P13R | 3.44 |
| P13S | 3.1 |
| P13T | 2.59 |
| P13V | 3.35 |
| P13G | 5.6 |
| F6H | 3.02 |
| F6Q | 4.18 |
| F6A | 2.9 |
| F6G | 3.11 |
| F6L | 2.26 |
| F6D | 2.69 |
| F6T | 2.35 |
| F6V | 3.64 |
| F6W | 2.85 |
| S20T | 4.03 |
| S20A | 2.52 |
| S20P | 2.92 |

| Variant | protein stability index |
| --- | --- |
| S20Q | 2.48 |
| S20W | 4.76 |
| S20N | 2.84 |
| S20G | 3.23 |
| S20F | 4.03 |
| S20I | 4.31 |
| S20Y | 3.22 |
| S20K | 3.97 |
| S20E | 3.34 |
| S20C | 2.27 |
| S20M | 2.78 |
| N14Q | 3.83 |
| N14F | 3.6 |
| N14S | 2.14 |
| N14T | 3.06 |
| N14H | 2.96 |
| N14R | 3.96 |
| N14A | 2.73 |
| N14C | 1.99 |
| N14D | 3.93 |
| N14E | 1.76 |
| N14G | 3.5 |
| N14Y | 1.5 |
| N14P | 2.34 |

| Variant | protein stability index |
| --- | --- |
| N14L | 3.78 |
| N14M | 2.01 |
| N14I | 4.38 |
| A19V | 2.66 |
| A19T | 2.42 |
| A19L | 3.37 |
| A19R | 2.55 |
| A19M | 2.4 |
| A19K | 2.5 |
| Y18L | 3.04 |
| Y18N | 1.59 |
| Y18D | 2.93 |
| Y18M | 2.05 |
| Y18F | 3.63 |
| Y18I | 2.47 |
| Y18E | 2.04 |
| Y18A | 2.49 |
| Y18P | 4.25 |
| Y18S | 3.38 |
| Y18K | 2.6 |
| Y18T | 2.31 |
| G11T | 2.29 |
| G11C | 2.58 |
| G11Q | 4.06 |

| Variant | protein stability index |
| --- | --- |
| G11S | 2.87 |
| G11V | 2.45 |
| G11Y | 3.04 |
| G11D | 3.42 |
| G11A | 2.87 |
| G11N | 3.96 |
| G11M | 3.38 |
| G11P | 3.28 |
| G11F | 2.92 |
| G11L | 2.33 |
| I9S | 3.01 |
| I9F | 2.63 |
| I9W | 3.12 |
| I9G | 2.45 |
| I9N | 3.06 |
| I9A | 2.57 |
| I9Q | 1.99 |
| I9H | 4.79 |
| I9L | 5.05 |
| I9E | 4.04 |
| I9R | 3.42 |
| I9T | 3.18 |
| I9M | 3.4 |
| L23H | 2.38 |

| Variant | protein stability index |
| --- | --- |
| L23Y | 3.92 |
| L23W | 1.83 |
| L23T | 3.09 |
| L23N | 2.74 |
| L23R | 3.18 |
| L23V | 2.58 |
| L23Q | 3.05 |
| L23S | 3.26 |
| L23M | 3.81 |
| L23E | 2.83 |
| V4S | 2.54 |
| V4I | 2.99 |
| V4E | 1.44 |
| V4W | 2.98 |
| V4C | 3.38 |
| V4N | 2.73 |
| V4Y | 2.54 |
| V4G | 4 |
| V4D | 3.68 |
| V4P | 2.67 |
| V4K | 2.64 |
| V4M | 2.09 |
| V4Q | 3.56 |
| V4L | 2.65 |

| Variant | protein stability index |
| --- | --- |
| V4H | 3.15 |
| Q12D | 2.94 |
| Q12K | 3.74 |
| Q12L | 3.8 |
| Q12C | 2.83 |
| Q12I | 2.73 |
| Q12S | 2.21 |
| Q12R | 2.64 |
| Q12V | 2.91 |
| Q12E | 2.25 |
| Q12M | 3.94 |
| Q12Y | 2.33 |
| Q12N | 1.94 |
| Q12T | 3.22 |
| V22Q | 4.34 |
| V22L | 2.28 |
| V22N | 2.78 |
| V22D | 3.37 |
| V22C | 2.2 |
| V22S | 1.93 |
| V22P | 3.9 |
| V22A | 4.16 |
| V22I | 3.81 |
| V22R | 3.38 |

| Variant | protein stability index |
| --- | --- |
| V22F | 2.78 |
| V22Y | 3.57 |
| T21Q | 2.97 |
| T21E | 2.46 |
| T21M | 3.09 |
| T21P | 3.23 |
| T21D | 3.9 |
| T21W | 3.97 |
| T21L | 2.38 |
| T21I | 3.71 |
| T21C | 3.33 |
| T21S | 3.13 |
| T21F | 3.22 |
| T21N | 3.31 |
| L16H | 1.6 |
| L16M | 3.19 |
| L16A | 4.05 |
| L16T | 3.51 |
| L16P | 4.12 |
| L16R | 3.61 |
| L16D | 2.58 |
| L16C | 2.98 |
| L16G | 2.02 |
| F17M | 2.52 |

| Variant | protein stability index |
| --- | --- |
| F17T | 3.28 |
| F17A | 1.86 |
| F17W | 3 |
| F17Q | 3.16 |
| F17S | 2.69 |
| F17N | 2.66 |
| F17K | 3.38 |
| F17Y | 2.63 |
| F17H | 3.19 |
| K24A | 2.9 |
| K24N | 4.33 |
| K24I | 2.92 |
| K24F | 3.17 |
| K24D | 2.73 |
| K24Y | 4.23 |
| K24E | 3.5 |
| K24V | 3.5 |
| K24P | 1.8 |
| K24S | 3.98 |
| K24T | 2.2 |
| K24H | 2.21 |
| K24W | 2.76 |
| K24Q | 4.06 |
| K24L | 1.12 |

| Variant | protein stability index |
| --- | --- |
| V7W | 2.61 |
| V7S | 2.3 |
| V7A | 2.03 |
| V7K | 1.59 |
| V7M | 4.19 |
| V7Y | 3.38 |
| V7H | 3.64 |
| V7D | 3.27 |
| L3P | 3.17 |
| L3N | 2.42 |
| L3T | 4.46 |
| L3E | 4.85 |
| L3V | 4.79 |
| L3M | 3.15 |
| L3H | 2.75 |
| L3S | 3.34 |
| L3G | 2.17 |
| L3Y | 2.54 |
| L3R | 2.29 |
| L3Q | 3.25 |
| L3W | 4.1 |
| L3I | 3.43 |
| F5Q | 2.13 |
| F5H | 1.93 |

| Variant | protein stability index |
| --- | --- |
| F5V | 2.47 |
| F5E | 2.7 |
| F5N | 2.65 |
| F5R | 3.67 |
| F5W | 3.59 |
| F5Y | 2.52 |
| F5S | 1.66 |
| F5P | 3.32 |
| F5I | 2.45 |
| F5T | 1.96 |
| T10Y | 3.46 |
| T10S | 1.67 |
| T10A | 3.42 |
| T10K | 3.77 |
| T10H | 2.17 |
| T10F | 2.92 |
| T10I | 3.61 |
| T10P | 5.16 |
| T10D | 2.75 |
| T10N | 1.88 |
| T10Q | 1.31 |
| T10E | 2.11 |
| Q8C | 3.19 |
| Q8T | 3.53 |

| Variant | protein stability index |
| --- | --- |
| Q8S | 2.51 |
| Q8P | 2.51 |
| Q8I | 3.94 |
| Q8K | 3.48 |
| Q8N | 3.92 |
| Q8G | 2.93 |
| Q8A | 4.06 |
| Q8L | 2.46 |
| Q8H | 3.26 |
| Q8E | 3.4 |
| Q8F | 3.87 |
| I15Y | 3.83 |
| I15W | 2.63 |
| I15K | 2.67 |
| I15S | 4.88 |
| I15L | 4.71 |
| I15E | 2.91 |
| I15Q | 2.46 |
| I15F | 3.04 |
| I15A | 2.99 |
| I15C | 2.48 |

Variants of: B2
Test: as above
Settings: c terminus: a fixed tail appended

| Variant | protein stability index |
| --- | --- |
| Q2M | 3.95 |
| Q2P | 3.67 |
| Q2K | 3.8 |
| Q2Y | 3.6 |
| Q2R | 4.06 |
| Q2W | 3.06 |
| Q2V | 1.8 |
| Q2F | 3.46 |
| Q2N | 4.51 |
| Q2H | 2.88 |
| Q2L | 3.35 |
| Q2T | 3.67 |
| Q2A | 3.12 |
| Q2C | 2.87 |
| Q2S | 4.34 |
| Q2E | 4.64 |
| Q2D | 4.78 |
| Q2I | 2.28 |
| Q2G | 3.7 |
| I4R | 3.06 |
| I4P | 3.58 |
| I4H | 3.56 |
| I4M | 3.66 |
| I4K | 3.42 |
| I4T | 3.58 |

| Variant | protein stability index |
| --- | --- |
| I4D | 4.32 |
| I4G | 3.34 |
| I4F | 3.19 |
| I4L | 3.81 |
| I4C | 3.09 |
| I4N | 3.41 |
| I4Q | 3.78 |
| I4A | 3.46 |
| I4E | 4.26 |
| I4S | 3.02 |
| Y1G | 5.11 |
| Y1E | 5.13 |
| Y1S | 4.94 |
| Y1V | 4.69 |
| Y1L | 4.75 |
| Y1T | 4.88 |
| Y1P | 4.94 |
| Y1H | 4.58 |
| Y1R | 4.83 |
| Y1N | 5.21 |
| Y1F | 3.33 |
| Y1Q | 4.92 |
| Y1M | 5.04 |
| Y1D | 5.38 |
| Y1C | 4.45 |

| Variant | protein stability index |
| --- | --- |
| Y1K | 4.88 |
| Y1A | 4.94 |
| Y1I | 3.89 |
| Y1W | 4.15 |
| Q3W | 2.09 |
| Q3S | 2.8 |
| Q3T | 3.28 |
| Q3A | 2.11 |
| Q3Y | 2.6 |
| Q3H | 3.28 |
| Q3I | 3.15 |
| Q3C | 2.17 |
| Q3P | 3.03 |
| Q3G | 2.68 |
| Q3N | 3.62 |
| Q3E | 4.59 |
| Q3D | 3.94 |
| Q3L | 3.38 |
| Q3R | 2.22 |
| Q3V | 3.44 |
| Q3K | 2.75 |
| Q3M | 2.88 |
| Q3F | 2.55 |
